# Results published in article PMC5701006.
# B1: human TGF-β type I receptor extracellular domain (receptor)
# chain: LQCFCHLCTKDNFTCVTDGLCFVSVTETTDKVIHNSMCIAEIDLIPRDRPFVCAPSSKTGSVTTTYCCNQDHCNKIELPTTVKSSPGLGPVEL
# Key:
# [1] = target: H. polygyrus TGF-β mimic (Hp-TGM), recombinant, amine-coupled to the chip (Heligmosomoides polygyrus); test: SPR; as a1 but with 2 μM hTβRII in the HBS-EP running buffer and in the injected hTβRI samples
# [2] = target: human TGF-β3 on the chip with hTβRII extracellular domain bound (2 μM hTβRII in running buffer and samples) (human) (UniProt P37173); test: as above
# [3] = target: H. polygyrus TGF-β mimic (Hp-TGM), recombinant, amine-coupled to the chip (Heligmosomoides polygyrus); test: SPR; BIAcore X100; hTGF-β3 or Hp-TGM amine-coupled to a CM5 chip; two-fold dilutions of hTβRI (from 4 µM downwards) injected in HBS-EP at 30 µL/min, room temperature; global fit, simple 1:1 model
binder,measurement,setting,value
B1,Kd,[1],348 nM
same,koff,[1],0.00315 s⁻¹
same,kon,[1],9070 M⁻¹ s⁻¹
same,Kd,[2],367 nM
same,koff,[2],0.00179 s⁻¹
same,kon,[2],4890 M⁻¹ s⁻¹
same,Kd,[3],351 nM
same,koff,[3],0.00386 s⁻¹
same,kon,[3],11000 M⁻¹ s⁻¹
